Laboratory results from patent US20260184794A1, “ANTIBODIES AGAINST INTEGRIN ALPHA 11 BETA 1 AND USES THEREOF” (Momenta Pharmaceuticals, Inc., priority 2022, published 2026).
Like-named read-outs stand apart in the source and are kept apart here.

Columns and labels:
mouse α11β1 = mouse α11β1 (Mus musculus, UniProt P61622); assay: Cross-reactivity with mouse α11β1 (SPR); type: binding; conditions: for Cross reacts with mouse α11β1: yes/no
CHO-hu α11 [1] = biological target: T1, CHO-hu α11 (Homo sapiens, UniProt Q9UKX5); assay: FACS antibody binding to CHO-K1 cells expressing human α11
T1 construct: expressed in transfected cells; host or cells: CHO-K1
Procedure: 200,000 cells (wild-type CHO-K1 cells or CHO-K1 cells expressing human α11) were incubated with each antibody at desired concentrations in FACS buffer for 30 min at 4° C. Then, the cells were washed with FACS buffer and incubated with secondary antibody at 1:100 dilution for 30 minutes at 4° C. Cells were then washed and fixed with 1% PF A in PBS for 20 minutes at room temperature; washed again and read on a cytometer in FACS buffer.

Pulmonary Myofibroblast = assay: FACS antibody binding to pulmonary myofibroblasts (HPF/MF); design: species or system human; conditions: Table 11, 1994-01-C7 variants, FIG. 4B
Procedure: Human Pulmonary Fibroblasts (ScienCell) were cultured in complete Fibroblast Growth Medium (ScienCell) until 80% confluent in T-150 flasks. Cells were washed and harvested using Accutase. Cells were seeded into T-150 flasks at 7,500 cells/cm^2 in complete FGF and cultured for 72 hours. Cells were then washed and starved in serum reduced medium for 24 hours. After starvation, cells were treated with TGFβ1 (R&D Systems) for 72 hours. Cells were harvested using Accutase and seeded in 96-well conical bottom plates. Cells were blocked with Heat Inactived Fetal Bovine Serum (Gibco) for 30 minutes at 4° C. Cells were then incubated with anti-al I antibodies at the doses described in each figure for 30 minutes at 4° C. A human anti-al I antibody (Creative BioLabs) was included as a positive control as well as the appropriate IgG isotype negative controls. Cells were washed twice and incubated with PE conjugated secondary antibodies specific to the IgG class of the anti-α11 antibodies being tested for 30 minutes at 4° C. Cells were washed twice and fixed in 1% PF A for 30 minutes. Cells were acquired on a FACS Verse […]. Data were analyzed by gating on single cells and determining the geometric Mean Fluorescence Intensity (gMFI) in the PE channel for each sample.

CHO-hu α11 [2] = biological target: T1, CHO-hu α11; assay: Cell adhesion inhibition on type I collagen (xCelligence); type: cell-based
Procedure: 0.6×10^6 cells/mL were incubated with each antibody at a range of concentrations for 20 minutes at 37° C. E-Plate VIEW 96 PET plate coated with 100 ng/ml type I collagen or PBS overnight at room temperature was blocked in 3% BSA for 1 hour at room temperature. After washing the plate with PBS, cell and antibody mixture was added to the wells and the plate was places into an xCelligence machine. Cell adhesion was recorded over 6 hours. The time point of maximum cell adhesion was used for comparison relative to control.

[3] = system: CHO cell lines expressing α11; assay: Collagen gel contraction assay; type: cell-based
Procedure: 24-well plates were blocked with 2% BSA in PBS overnight at 37° C. The following day, the plates were washed 3 times with PBS before being used in the assay. Human CHO cell lines expressing all were harvested and resuspended at 1.25×10^6 in ExpiCHO Expression Medium (Gibco™ Cat #A2910002). The collagen gel solution was prepared by diluting 3 mg/mL stock collagen type I (Gibco™ Collagen I Rat Protein, Tail Cat #A1048301) to I mg/mL in the media containing the CHO cells. Sodium hydroxide was added to the solution to neutralize the pH and 400 μL of the collagen solution was added to each well of the 24-well plates. For the wells where the antibodies were included in the collagen gel solution, CHO cells were prepared at 2.5×10^6 and the antibodies were prepared at 2× final concentration in ExpiCHO media. The cells and antibodies were then combined 1:1 before the addition of the stock collagen type I. The gels were allowed to polymerize for 60 minutes at 37° C. Antibodies were added to the ExpiCHO media, which was then layered on top of the polymerized gel ([…]). The gels were incubated for 6 days at 37° C. before gel contraction was quantified. Images of each well were analyzed using Image J and gel contraction was determined as a percentage of the initial gel area.

cell-mu all = biological target: T2, cell-mu all (Mus musculus, UniProt P61622); assay: Binding to cells expressing mouse α11
T2 construct: expressed in transfected cells

[4] = system: Precision cut kidney slices (PCKS); assay: Human fibrotic precision cut kidney slices (PCKS) treated with TGF-β1 and PDGFββ, secreted mediators; type: cell-based; conditions: increasing antibody doses, dose dependent; for inhibition of secreted Col1a1: FIG. 2; for inhibition of secreted IL-11: FIG. 3
Procedure: Precision cut kidney slices (PCKS) were treated with TGF-β1 and PDGFββ in the presence or absence of Alk5i and increasing doses of anti-α11β1 antibodies. The antibodies provided an inhibition of secreted pro-fibrotic and pro-inflammatory mediators Col1a1 (1994-01-C7 FIG. 2A, 79E3E3 FIG. 2B, and 16E10 FIG. 2C) and IL-11 (1994-01-C7 FIG. 3A, 79E3E3 FIG. 3B, and 16E10 FIG. 3C) in a dose dependent manner.

[5] = Table 11, 1994-01-C7 variants, FIG. 4A
[6] = Table 11, 1994-01-C7 variants, FIG. 4C, read-out: Inhibition of Cell Adhesion IC50
[7] = Table 12, 16E10 variants, FIG. 5B, read-out: CHO-α11 Adhesion Inhibition IC50

Chain of mouse α11β1 (P61622 23-1141 limits assumed): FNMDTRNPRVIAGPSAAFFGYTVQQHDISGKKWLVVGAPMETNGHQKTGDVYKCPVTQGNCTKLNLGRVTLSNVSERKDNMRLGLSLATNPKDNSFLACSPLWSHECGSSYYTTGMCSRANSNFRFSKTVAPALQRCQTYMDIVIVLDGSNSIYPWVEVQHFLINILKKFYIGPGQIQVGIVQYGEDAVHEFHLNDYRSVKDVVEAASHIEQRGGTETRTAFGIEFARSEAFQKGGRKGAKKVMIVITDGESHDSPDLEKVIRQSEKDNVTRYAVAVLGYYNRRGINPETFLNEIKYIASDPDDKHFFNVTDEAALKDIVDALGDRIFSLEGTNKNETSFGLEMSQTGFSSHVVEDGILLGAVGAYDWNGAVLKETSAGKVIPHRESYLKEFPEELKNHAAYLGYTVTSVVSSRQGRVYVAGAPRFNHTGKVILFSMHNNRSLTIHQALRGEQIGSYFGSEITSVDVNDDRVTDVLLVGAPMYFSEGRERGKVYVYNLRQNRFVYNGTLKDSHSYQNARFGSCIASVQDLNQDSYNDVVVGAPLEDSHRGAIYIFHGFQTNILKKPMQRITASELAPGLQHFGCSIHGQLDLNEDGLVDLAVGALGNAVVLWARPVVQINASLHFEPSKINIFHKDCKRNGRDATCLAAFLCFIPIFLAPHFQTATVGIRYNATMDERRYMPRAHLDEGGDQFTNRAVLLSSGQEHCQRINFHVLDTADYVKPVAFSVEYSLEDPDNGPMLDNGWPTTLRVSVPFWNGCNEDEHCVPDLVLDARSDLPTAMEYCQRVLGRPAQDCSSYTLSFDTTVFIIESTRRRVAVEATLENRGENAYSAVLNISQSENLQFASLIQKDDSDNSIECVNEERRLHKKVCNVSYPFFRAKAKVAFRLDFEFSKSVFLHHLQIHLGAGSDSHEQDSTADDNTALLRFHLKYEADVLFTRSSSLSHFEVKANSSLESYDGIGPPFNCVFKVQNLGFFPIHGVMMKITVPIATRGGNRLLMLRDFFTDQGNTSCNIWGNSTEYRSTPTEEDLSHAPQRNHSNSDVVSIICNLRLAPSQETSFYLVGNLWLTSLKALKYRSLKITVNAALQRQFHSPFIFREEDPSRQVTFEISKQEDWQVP
Chain of mouse α11β1 (P09055 21-728 partner limits assumed): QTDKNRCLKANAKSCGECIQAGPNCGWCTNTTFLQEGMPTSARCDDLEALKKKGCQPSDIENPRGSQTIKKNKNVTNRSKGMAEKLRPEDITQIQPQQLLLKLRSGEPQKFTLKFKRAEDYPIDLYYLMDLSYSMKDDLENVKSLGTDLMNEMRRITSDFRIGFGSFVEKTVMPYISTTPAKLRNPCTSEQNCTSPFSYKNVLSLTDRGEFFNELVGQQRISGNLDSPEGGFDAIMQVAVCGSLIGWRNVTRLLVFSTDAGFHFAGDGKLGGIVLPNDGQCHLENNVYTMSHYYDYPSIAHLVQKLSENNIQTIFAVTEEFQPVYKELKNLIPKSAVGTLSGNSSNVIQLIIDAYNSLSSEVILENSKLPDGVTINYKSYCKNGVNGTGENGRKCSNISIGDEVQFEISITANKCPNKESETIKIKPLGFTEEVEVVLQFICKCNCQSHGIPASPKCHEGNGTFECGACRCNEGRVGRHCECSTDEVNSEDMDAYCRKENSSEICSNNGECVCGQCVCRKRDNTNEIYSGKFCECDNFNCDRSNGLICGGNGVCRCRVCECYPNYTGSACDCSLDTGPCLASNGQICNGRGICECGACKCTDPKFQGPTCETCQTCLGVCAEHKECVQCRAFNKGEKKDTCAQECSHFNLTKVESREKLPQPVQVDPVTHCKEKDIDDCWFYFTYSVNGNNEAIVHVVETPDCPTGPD
T1 sequence (Q9UKX5 23-1188): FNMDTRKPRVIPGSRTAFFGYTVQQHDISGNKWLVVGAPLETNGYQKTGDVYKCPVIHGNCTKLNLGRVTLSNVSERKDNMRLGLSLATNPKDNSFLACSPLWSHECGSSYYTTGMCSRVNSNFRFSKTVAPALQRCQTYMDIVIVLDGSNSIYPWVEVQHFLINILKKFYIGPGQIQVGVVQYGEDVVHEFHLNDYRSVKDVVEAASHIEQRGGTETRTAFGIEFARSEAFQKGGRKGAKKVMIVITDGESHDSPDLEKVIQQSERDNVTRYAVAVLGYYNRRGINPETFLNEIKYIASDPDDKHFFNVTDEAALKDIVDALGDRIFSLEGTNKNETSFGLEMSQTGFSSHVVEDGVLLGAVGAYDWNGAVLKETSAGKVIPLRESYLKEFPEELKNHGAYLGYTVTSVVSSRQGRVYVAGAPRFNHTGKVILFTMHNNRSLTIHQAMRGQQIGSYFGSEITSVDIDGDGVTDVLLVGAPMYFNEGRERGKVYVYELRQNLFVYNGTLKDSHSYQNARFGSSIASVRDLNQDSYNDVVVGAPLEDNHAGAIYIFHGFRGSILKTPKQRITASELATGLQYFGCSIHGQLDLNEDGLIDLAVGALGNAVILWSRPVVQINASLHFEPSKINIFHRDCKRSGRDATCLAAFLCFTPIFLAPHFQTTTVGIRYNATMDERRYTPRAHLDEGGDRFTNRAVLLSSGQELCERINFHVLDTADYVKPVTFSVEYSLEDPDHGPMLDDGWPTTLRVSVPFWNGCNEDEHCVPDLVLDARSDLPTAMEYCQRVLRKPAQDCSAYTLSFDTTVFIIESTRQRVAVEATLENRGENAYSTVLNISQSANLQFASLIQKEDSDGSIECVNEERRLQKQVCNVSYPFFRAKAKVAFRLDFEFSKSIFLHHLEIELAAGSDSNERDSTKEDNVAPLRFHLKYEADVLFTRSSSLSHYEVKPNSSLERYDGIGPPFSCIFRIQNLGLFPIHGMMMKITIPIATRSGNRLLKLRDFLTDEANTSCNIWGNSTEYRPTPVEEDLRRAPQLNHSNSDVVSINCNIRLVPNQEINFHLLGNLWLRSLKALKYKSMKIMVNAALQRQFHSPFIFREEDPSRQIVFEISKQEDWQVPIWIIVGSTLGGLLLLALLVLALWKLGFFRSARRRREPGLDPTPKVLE
T1 sequence (P05556 21-798 partner): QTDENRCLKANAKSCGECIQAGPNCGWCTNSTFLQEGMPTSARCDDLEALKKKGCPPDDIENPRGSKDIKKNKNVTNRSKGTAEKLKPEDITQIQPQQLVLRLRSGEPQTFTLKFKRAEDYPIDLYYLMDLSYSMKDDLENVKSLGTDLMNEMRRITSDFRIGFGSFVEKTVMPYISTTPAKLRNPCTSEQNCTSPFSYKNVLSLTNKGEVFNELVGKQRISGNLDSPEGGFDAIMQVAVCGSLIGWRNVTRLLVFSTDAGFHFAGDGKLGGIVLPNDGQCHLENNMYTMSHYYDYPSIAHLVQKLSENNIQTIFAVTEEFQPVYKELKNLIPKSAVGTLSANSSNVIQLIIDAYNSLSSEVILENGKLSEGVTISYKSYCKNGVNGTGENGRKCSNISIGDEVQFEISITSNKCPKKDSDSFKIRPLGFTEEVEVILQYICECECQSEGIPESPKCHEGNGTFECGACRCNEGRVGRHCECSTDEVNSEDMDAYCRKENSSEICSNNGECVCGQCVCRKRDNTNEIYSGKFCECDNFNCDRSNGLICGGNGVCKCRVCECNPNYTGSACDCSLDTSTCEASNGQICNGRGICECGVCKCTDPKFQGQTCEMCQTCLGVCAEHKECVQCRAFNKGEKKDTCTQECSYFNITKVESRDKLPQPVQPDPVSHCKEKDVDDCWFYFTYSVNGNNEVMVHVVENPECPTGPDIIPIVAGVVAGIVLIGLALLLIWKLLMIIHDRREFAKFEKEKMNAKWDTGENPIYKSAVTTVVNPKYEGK

Molecule	EC50 (CHO-hu α11 [1]; [5]) [nM]	EC50 (Pulmonary Myofibroblast) [nM]	IC50 (CHO-hu α11 [2]; [6]) [nM]	Inhibits CHO-α11 mediated collagen gel contraction [3]	inhibition of secreted Col1a1 [4]	inhibition of secreted IL-11 [4]	IC50 (CHO-hu α11 [2]; [7]) [nM]	further results
1994-01-C7 (#9): anti-α11β1 monoclonal antibody from human phage display; VH SEQ ID NO: 32, VL SEQ ID NO: 37 (antibody, V domains shown) VH: QVQLVQSGAEVKKPGASVKVSCKASGYTFTSYGISWVRQAPGQGLEWMGWISAYNGNTNYAQKLQGRVTMTTDTSTSTAYMELRSLRSDDTAAYYCARVTGITGTTIDPWGQGTMVTVSS VL: DIQMTQSPSSLSASVGDRVTITCRASQSISSYLNWYQQKPGKAPKLLIYDASSLESGVPSRFSGSGSGTEFTLTISSLQPDDFAVYYCQQYNNWPQTFGQGTKVEIK	3	3.6	3.4	Yes	inhibition	inhibition	–	Cross reacts with mouse α11β1 (mouse α11β1): No by SPR; binds cell-mu all (cell-mu all): binds
79E3E3: anti-α11β1 monoclonal antibody from rat hybridoma; VH SEQ ID NO: 8, VL SEQ ID NO: 20 (antibody, V domains shown) VH: QIQLVQSGPEVKKPGESVKISCKASGYTFTDYAMNWVKQAPGNGLKWMGWINTQTGKPTYADDFKQRFVFSLETSARTTYLQINNLNIEDTATYFCTRLGTGNTKGFAYWGQGTLVTVSS VL: DILINQSPASLTVSAGERVTMSCKSSQSLLYSENNQDYLAWYQQKPGQFPKLLIYGASNRHTGVPDRFTGSGSGTDFTLTISSVQAEDLADYYCEQTYRYPFTFGSGTKLEIK	–	–	–	Yes	inhibition	inhibition	–	Kd (mouse α11β1; mouse α11β1, method not given, read-out: Cross reacts with mouse α11β1 (affinity)): 0.21 nM; EC50 (CHO-hu α11 [1]; Table 13, 79E3E3 variants): 2.5 nM
16E10: anti-α11β1 monoclonal antibody from B cell sorting; VH SEQ ID NO: 57, VL SEQ ID NO: 62 (antibody, V domains shown) VH: QSLEESGGDLVKPGASLTLTCRVSGFSFSSSYYMCWVRQAPGKGLEWIACIGTTRGSTYYATWAKGRFTISKISSTTVTLQMTSLTDADTATYFCARDATGYRINTIGLYFNLWGPGTLVTVSS VL: ELTQTPSSVEAAVGGTPTIKCQASQTIYSYLSWYQQKPGQPPKLLIYEASKLASGVPSRFSGSGSGTDYTLTISDLECADAATYYCQSYHGTASTEYNTFGGGTEVVVK	–	–	–	Yes	inhibition	inhibition	0.4	Cross reacts with mouse α11β1 (mouse α11β1): No
Antibody 58: 1994-01-C7 variant; VH SEQ ID NO: 31, VL SEQ ID NO: 37 (antibody, V domains shown) VH: QVQLVQSGAEVKKPGASVKVSCKASGYTFTSYGISWVRQAPGQGLEWMGWISAYNANVNYAQKLQGRVTMTTDTSTSTAYMELRSLRSDDTAAYYCARVTGITGTTIGPWGQGTMVTVSS VL: DIQMTQSPSSLSASVGDRVTITCRASQSISSYLNWYQQKPGKAPKLLIYDASSLESGVPSRFSGSGSGTEFTLTISSLQPDDFAVYYCQQYNNWPQTFGQGTKVEIK	5.94	2.87	3	–	–	–	–	–
Antibody 60: 1994-01-C7 variant; VH SEQ ID NO: 33, VL SEQ ID NO: 37 (antibody, V domains shown) VH: QVQLVQSGAEVKKPGASVKVSCKASGYTFTSYGISWVRQAPGQGLEWMGWISAYNSNTNYAQKLQGRVTMTTDTSTSTAYMELRSLRSDDTAAYYCARVTGITGTTIGPWGQGTMVTVSS VL: DIQMTQSPSSLSASVGDRVTITCRASQSISSYLNWYQQKPGKAPKLLIYDASSLESGVPSRFSGSGSGTEFTLTISSLQPDDFAVYYCQQYNNWPQTFGQGTKVEIK	5.3	4.6	4.2	–	–	–	–	–
Antibody 54: 1994-01-C7 variant; VH SEQ ID NO: 30, VL SEQ ID NO: 37 (antibody, V domains shown) VH: QVQLVQSGAEVKKPGASVKVSCKASGYTFTSYGISWVRQAPGQGLEWMGWISAYNANTNYAQKLQGRVTMTTDTSTSTAYMELRSLRSDDTAAYYCARVTGITGTTIGPWGQGTMVTVSS VL: DIQMTQSPSSLSASVGDRVTITCRASQSISSYLNWYQQKPGKAPKLLIYDASSLESGVPSRFSGSGSGTEFTLTISSLQPDDFAVYYCQQYNNWPQTFGQGTKVEIK	5.5	2.4	3.5	–	–	–	–	–
A11BB125: 16E10 variant; VH SEQ ID NO: 55, VL SEQ ID NO: 61 (antibody, V domains shown) VH: EVQLLESGGGLVQPGGSLRLSCAASGFSFSSSYYMSWVRQAPGKGLEWVSAIGTTRGSTYYADSVKGRFTISRDSSKNTLYLQMNSLRAEDTAVYYCARDATGYRINTIGLYFNLWGQGTLVTVSS VL: DIVMTQSPDSLAVSLGERATINCQASQTIYSYLSWYQQKPGQPPKLLIYEASKLASGVPDRFSGSGSGTDYTLTISSLQAEDVAVYYCQSYHGTASTEYNTFGGGTKVEIK	–	–	–	–	–	–	0.5	–
A11BB127: 16E10 variant; VH SEQ ID NO: 46, VL SEQ ID NO: 61 (antibody, V domains shown) VH: EVQLLESGGGLVQPGGSLRLSCAASGFSFSSSYYMAWVRQAPGKGLEWVSAIGTTRGSTYYADSVKGRFTISRDNSKNTVYLQMNSLRAEDTAVYYCARDATGYRINTIGLYFNLWGQGTLVTVSS VL: DIVMTQSPDSLAVSLGERATINCQASQTIYSYLSWYQQKPGQPPKLLIYEASKLASGVPDRFSGSGSGTDYTLTISSLQAEDVAVYYCQSYHGTASTEYNTFGGGTKVEIK	–	–	–	–	–	–	0.4	–
A11BB129: 16E10 variant; VH SEQ ID NO: 54, VL SEQ ID NO: 61 (antibody, V domains shown) VH: EVQLLESGGGLVQPGGSLRLSCAASGFSFSSSYYMSWVRQAPGKGLEWVSAIGTTRGSTYYADSVKGRFTISRDNSKNTVYLQMNSLRAEDTAVYYCARDATGYRINTIGLYFNLWGQGTLVTVSS VL: DIVMTQSPDSLAVSLGERATINCQASQTIYSYLSWYQQKPGQPPKLLIYEASKLASGVPDRFSGSGSGTDYTLTISSLQAEDVAVYYCQSYHGTASTEYNTFGGGTKVEIK	–	–	–	–	–	–	0.5	–
